The source of these data is US20240401239A1 (US Dept. of Health and Human Services, published 2024).

For assay [1], the target named is T1, RBD-His (SinoBiological, 40592-V08H) (SARS-COV-2, UniProt P0DTC2 319-541).
Assay [2] has as its target T1, RBD-His (SinoBiological, 40592-V08H). The source holds these as a separate data set.
Assay [3] has as its target SARS-COV-2 S protein, variant B1.1.7 (Alpha), on MLV pseudotyped particles (SARS-COV-2, UniProt P0DTC2 14-1254). In words: cell-based or functional assay.
Assay [4] deals with T2, RBD-mFc recombinant protein (Sino Biological, 40592-V05H) (SARS-COV-2, UniProt P0DTC2 319-541).
T2 construct: domain: RBD
In words: BLI (Octet), 1-2G-Fc as load, RBD-mFc as analyte, global fit (FIG. 11A).

Assay [5] addresses T1, RBD-His (SinoBiological, 40592-V08H). This is another data set of the same source.
The target of assay [6] is T2, RBD-mFc recombinant protein (Sino …). In words: BLI (Octet), RBD-mFc as load, 1-2G-Fc as analyte, global fit (FIG. 11C). A general note: Biolayer interferometry detects binding as a change in optical thickness at a sensor tip.
The target of assay [7] is T3, S1-hFc recombinant protein (Sino Biological, printed 4059I-V02H) (SARS-COV-2, UniProt P0DTC2 16-685).
Assay [8] deals with T2, RBD-mFc recombinant protein (Sino …).
Assay [9] has as its target T1, RBD-His (SinoBiological, 40592-V08H).
Assay [10] has as its target T3, S1-hFc recombinant protein (Sino …). The source holds these as a separate data set.
In assay [11] the target is T2, RBD-mFc recombinant protein (Sino …). This is another data set of the same source.
Assay [12] has as its target T1, RBD-His (SinoBiological, 40592-V08H). This is another data set of the same source.

Like-named read-outs stand apart in the source and are kept apart here.

B1: RBD-1-2G-Tri (bispecific antibody)
chain: EVQLVESGGGLVQPGGSLRLSCAASGFSSIVYMGWFRQAPGKGRELVAAIDASGSTTNYPDSVEGRFTISRDNAKRMVYLQMNSLRAEDTAVYYCAIAYFTSPEYVVSQGWGQGTQVTVSSGGGGSGGGGSGGGGSEVQLVESGGGLVQPGGSLRLSCAASGFSSIVYMGWFRQAPGKGRELVAAIDASGSTTNYPDSVEGRFTISRDNAKRMVYLQMNSLRAEDTAVYYCAIAYFTSPEYVVSQGWGQGTQVTVSSGGGGSGGGGSGGGGSEVQLVESGGGLVQPGGSLRLSCAASGFSSIVYMGWFRQAPGKGRELVAAIDASGSTTNYPDSVEGRFTISRDNAKRMVYLQMNSLRAEDTAVYYCAIAYFTSPEYVVSQGWGQGTQVTVSSHHHHHH
In the case of B1, binding in assay [1] was put at a Kd of 0.1 nM. Further, in assay [2], the koff amounted to 7e-05 s⁻¹ and the kon stood at 600000 M⁻¹ s⁻¹. The “IC50, pseudotyped particle entry assay, B.1.1.7 particles” value (“IC50, pseudotyped particle entry assay” for short) in assay [3] was determined as 0.3 nM.

B2: RBD-1-2G-Fc (Fc fusion)
chain: EVQLVESGGGLVQPGGSLRLSCAASGFSSIVYMGWFRQAPGKGRELVAAIDASGSTTNYPDSVEGRFTISRDNAKRMVYLQMNSLRAEDTAVYYCAIAYFTSPEYVVSQGWGQGTQVTVSS
notes: also called bivalent format of RBD-1-2G
Molecule B2 displayed a Kd in [1] of 1.9 nM. Also, the koff worked out at 0.0017 s⁻¹ in [4], 0.00018 s⁻¹ in assay [5] and 0.0005 s⁻¹ in assay [6]. The kon was found to be 83000 M⁻¹ s⁻¹ in assay [4], 91000 M⁻¹ s⁻¹ in assay [5] and 73000 M⁻¹ s⁻¹ in [6]. Moreover, the “IC50, pseudotyped particle entry assay” value in [3] amounted to 17.5 nM.

B3: single-domain antibody RBD-1-2G (VHH)
VHH: B2 chain
notes: also called RBD-1-2G Nb; RBD-1-2G nanobody
Consider B3, for which the dissociation constant Kd turned out to be 6.9 nM in assay [7], 9.4 nM in assay [8] and 14.3 nM in assay [9]. For the same molecule, the values for the off-rate (koff) in assay [10], in [11] and in assay [12] were 0.0002 s⁻¹, 0.00024 s⁻¹ and 0.0011 s⁻¹, respectively. The values for the kon in assay [10], in assay [11] and in assay [12] were 29500 M⁻¹ s⁻¹, 25400 M⁻¹ s⁻¹ and 752000 M⁻¹ s⁻¹, respectively. In addition, in assay [3], the “IC50, pseudotyped particle entry assay” value was 746 nM.

Usually Kd stands for the free concentration of one partner at which half of the binding sites on the other are occupied at equilibrium, for simple one-to-one binding. Usually koff stands for the first-order rate constant of dissociation. Broadly, the kon is the rate constant with which the complex forms.
